Test results: article PMC10329719 (2023)
Primed or numbered codes have the meaning given here. Where no end group is shown, it is not given here. FITC′ = not defined here

Key:
Assay in all cases: ELISA-like fluorescence binding assay
TβR3 = target: T1, TβR3 (Homo sapiens, UniProt Q03167)
T1 chain: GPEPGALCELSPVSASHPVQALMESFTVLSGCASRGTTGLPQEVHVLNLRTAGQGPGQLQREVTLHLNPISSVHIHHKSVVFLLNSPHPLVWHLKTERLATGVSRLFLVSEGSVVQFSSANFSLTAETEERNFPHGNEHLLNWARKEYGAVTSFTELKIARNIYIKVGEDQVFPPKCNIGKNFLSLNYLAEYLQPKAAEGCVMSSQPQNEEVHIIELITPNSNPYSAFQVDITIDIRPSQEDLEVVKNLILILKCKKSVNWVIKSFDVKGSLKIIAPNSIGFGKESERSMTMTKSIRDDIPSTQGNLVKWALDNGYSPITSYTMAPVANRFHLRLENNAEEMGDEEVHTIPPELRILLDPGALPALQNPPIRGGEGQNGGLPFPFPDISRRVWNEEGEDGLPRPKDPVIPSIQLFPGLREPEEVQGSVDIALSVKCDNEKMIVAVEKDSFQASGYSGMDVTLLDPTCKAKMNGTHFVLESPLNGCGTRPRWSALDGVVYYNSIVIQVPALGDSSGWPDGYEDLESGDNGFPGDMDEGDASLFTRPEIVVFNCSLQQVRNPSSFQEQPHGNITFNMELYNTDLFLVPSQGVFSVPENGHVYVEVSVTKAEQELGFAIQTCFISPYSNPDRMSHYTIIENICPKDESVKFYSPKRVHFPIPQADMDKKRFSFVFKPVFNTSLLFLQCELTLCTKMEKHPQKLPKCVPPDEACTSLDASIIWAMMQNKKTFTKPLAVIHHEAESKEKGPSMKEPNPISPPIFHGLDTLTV

TβR1 = target: T2, TβR1 (Homo sapiens, UniProt P36897)
T2 chain: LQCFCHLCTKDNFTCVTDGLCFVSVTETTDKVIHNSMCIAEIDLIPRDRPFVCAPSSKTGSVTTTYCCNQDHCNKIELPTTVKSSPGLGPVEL

TβR2 = TβR2 (Homo sapiens, UniProt P37173)
Chain of TβR2 (P37173 23-166): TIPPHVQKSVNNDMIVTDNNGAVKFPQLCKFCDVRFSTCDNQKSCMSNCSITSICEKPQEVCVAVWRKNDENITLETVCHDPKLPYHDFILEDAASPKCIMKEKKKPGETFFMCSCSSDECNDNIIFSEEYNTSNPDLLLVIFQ

Kd (TβR3): > 34 µM
Kd (TβR1): > 34 µM
Kd (TβR2): 3.4 µM
B1: PTβR2I (peptide)
chain: ECGLLPVGRPDRVWRLCK-{FITC′}
modifications: cysteine pairing not given here
